The record followed here is PMC7689096, “Cyclizing Painkillers: Development of Backbone-Cyclic TAPS Analogs” (Frontiers in Chemistry, 2020).

Numbered stars: 1 amine (or outer) side, 2 acyl side, 3 side chain; on linkers, the order of the positions; unused ones are H or OH. Bridge positions count the residues as written; N and C are the ends. Square brackets hold non-standard residues; d marks the D form. Primed or numbered codes have the meaning given here. Ends that are not written are not given here. dR(Nα-6-aminohexyl) = N=C(N)NCCC[C@H](C(=O)[*:2])N(CCCCCCN[*:3])[*:1]; dR(Nα-3-aminopropyl) = N=C(N)NCCC[C@H](C(=O)[*:2])N(CCCN[*:3])[*:1]; Gly(N-2-aminoethyl)′ = not defined here; CO = O=C([*:1])[*:2]; Sar = CNCC(=O)O

In this assay the target is human recombinant μ opioid receptor (human) (UniProt P35372).
human recombinant μ opioid receptor (human), sequence (P35372 whole entry): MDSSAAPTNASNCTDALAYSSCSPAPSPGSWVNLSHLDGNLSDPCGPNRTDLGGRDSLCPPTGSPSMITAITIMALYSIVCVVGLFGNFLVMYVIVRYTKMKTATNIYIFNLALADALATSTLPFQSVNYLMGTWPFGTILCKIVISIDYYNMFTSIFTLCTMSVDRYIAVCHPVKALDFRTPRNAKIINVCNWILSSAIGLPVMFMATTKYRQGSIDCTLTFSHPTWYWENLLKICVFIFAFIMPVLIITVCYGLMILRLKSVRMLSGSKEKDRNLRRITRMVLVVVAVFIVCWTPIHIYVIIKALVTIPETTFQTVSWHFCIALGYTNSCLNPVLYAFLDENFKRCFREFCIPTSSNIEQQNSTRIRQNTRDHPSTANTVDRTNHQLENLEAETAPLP
For Y[dR]F[Sar] [linear peptide Tyr-D-Arg-Phe-Sar (TAPS)], the MOP agonist (%) at 10^-6 M: percent of control specific agonist response (DAMGO), CHO cells expressing human recombinant μ receptors is 90%.
The same measure, in the same setting: the figure for Y[dR(Nα-6-aminohexyl)]F[Gly(N-2-aminoethyl)′]-NH2 (bridge 2-4 via CO; not fully specified) [TAPS c(2-6)] is 48%.
Y[dR(Nα-6-aminohexyl)]F[Gly(N-6-aminohexyl)] (bridge 2-4 via CO; not fully specified) [TAPS c(6-6)]: the MOP agonist (%) at 10^-6 M: percent of control specific agonist response (DAMGO), CHO cells expressing human recombinant μ receptors; values lower than 25% are not significant came out at 21%.
As to Y[dR(Nα-3-aminopropyl)]F[Gly(N-4-aminobutyl)] (bridge 2-4 via CO; not fully specified) [TAPS c(4-3)], the MOP agonist (%) at 10^-6 M: percent of control specific agonist response (DAMGO), CHO cells expressing human recombinant μ receptors was 63%.
In the case of Y[dR(Nα-6-aminohexyl)]F[Gly(N-4-aminobutyl)] (bridge 2-4 via CO; not fully specified) [TAPS c(4-6)], the MOP agonist (%) at 10^-6 M: percent of control specific agonist response (DAMGO), CHO cells expressing human recombinant μ receptors; values lower than 25% are not significant is 1%.
Still for that read-out and setting: under Y[dR(Nα-3-aminopropyl)]F[Gly(N-2-aminoethyl)′] (bridge 2-4 via CO; not fully specified) [TAPS c(2-3)] stands 24%; under Y[dR(Nα-6-aminohexyl)]F[Gly(N-3-aminopropyl)] (bridge 2-4 via CO; not fully specified) [TAPS c(3-6)], 1%.
For the molecule Y[dR(Nα-3-aminopropyl)]F[Gly(N-6-aminohexyl)] (bridge 2-4 via CO; not fully specified) [TAPS c(6-3)], the MOP agonist (%) at 10^-6 M: percent of control specific agonist response (DAMGO), CHO cells expressing human recombinant μ receptors amounted to 75%.
For the molecule Y[dR(Nα-3-aminopropyl)]F[Gly(N-3-aminopropyl)] (bridge 2-4 via CO; not fully specified) [TAPS c(3-3)], the MOP agonist (%) at 10^-6 M: percent of control specific agonist response (DAMGO), CHO cells expressing human recombinant μ receptors; values lower than 25% are not significant was 1%.
